Assay results reported in US20240391954A1, “MC4R AGONIST PEPTIDES” (The Regents of the University of Michigan, priority 2021, published 2024).
Starred links: 1 amine or outer side, 2 acyl side, 3 side chain; linkers in the order of their positions; H or OH if unused. Positions of bridges follow the written chain, without caps; N, C: chain ends. Non-standard residues stand in square brackets, D forms with d. Primed or numbered codes have the meaning given here. dTyr(4-OMe)″ = O-methyl-D-tyrosine, COc1ccc(C[C@@H](N[*:1])C(=O)[*:2])cc1; 2Pal = N[C@@H](Cc1ccccn1)C(=O)O; 3Pal = N[C@@H](Cc1cccnc1)C(=O)O; 4Pal = N[C@@H](Cc1ccncc1)C(=O)O; Cit = NC(=O)NCCC[C@H](N)C(=O)O; Orn = NCCC[C@H](N)C(=O)O; Aib = CC(C)(N)C(=O)O

Tests used:
Assay in all cases: cell-based or functional assay
human MC4R receptor [1] = biological target: T1, human MC4R receptor (human, UniProt P32245 1-332)
human MC3R = human MC3R (human, UniProt P41968 1-323)
human MC4R receptor [2] = biological target: T1, human MC4R receptor; remark: listed apart in the source

human MC3R, sequence (P41968 whole entry): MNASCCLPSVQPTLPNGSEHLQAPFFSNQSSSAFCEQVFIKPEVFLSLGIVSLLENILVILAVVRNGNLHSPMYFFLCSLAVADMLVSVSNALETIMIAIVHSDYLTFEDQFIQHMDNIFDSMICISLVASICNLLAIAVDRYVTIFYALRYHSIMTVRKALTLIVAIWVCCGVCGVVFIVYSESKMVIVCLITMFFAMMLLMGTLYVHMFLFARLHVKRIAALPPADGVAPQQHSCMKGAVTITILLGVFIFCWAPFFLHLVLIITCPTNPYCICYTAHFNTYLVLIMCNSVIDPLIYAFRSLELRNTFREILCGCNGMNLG
T1 sequence (P32245 whole entry): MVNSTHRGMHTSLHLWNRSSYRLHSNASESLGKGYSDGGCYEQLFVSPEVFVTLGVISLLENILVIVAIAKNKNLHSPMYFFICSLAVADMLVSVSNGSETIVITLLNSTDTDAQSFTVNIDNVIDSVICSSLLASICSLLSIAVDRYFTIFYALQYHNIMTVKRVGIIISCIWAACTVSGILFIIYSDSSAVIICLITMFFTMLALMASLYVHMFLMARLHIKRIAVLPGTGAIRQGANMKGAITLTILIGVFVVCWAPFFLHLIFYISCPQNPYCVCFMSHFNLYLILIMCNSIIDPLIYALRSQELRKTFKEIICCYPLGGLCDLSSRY

| Binder | % max activation (human MC4R receptor [1]) | cAMP EC50 (human MC4R receptor [1]) | cAMP EC50 (human MC3R) | MC4R selectivity vs MC1R (human MC4R receptor [2]) | MC4R selectivity vs MC3R (human MC4R receptor [2]) | % max activation (human MC3R) |
| --- | --- | --- | --- | --- | --- | --- |
| Ac-RC[Aib]R[dTyr(4-OMe)″]R[dW]C-NH2 (disulfide 2-8) [CTX-1297] | 97% | 3.3 nM | > 10000 nM | 0.52 | > 3000 | – |
| Ac-RC[dA]R[dF]R[dF]C-NH2 (disulfide 2-8; SMILES CC(=O)N[C@@H](CCCNC(=N)N)C(=O)N[C@H]1CSSC[C@@H](C(N)=O)NC(=O)[C@@H](Cc2ccccc2)NC(=O)[C@H](CCCNC(=N)N)NC(=O)[C@@H](Cc2ccccc2)NC(=O)[C@H](CCCNC(=N)N)NC(=O)[C@@H](C)NC1=O) [CTX-1257] | – | – | 44 nM | 0.02 | – | – |
| Ac-RC[Aib]R[dF]RFC-NH2 (disulfide 2-8) [CTX-1601] | 97% | 11 nM | 26 nM | 0.93 | 2.3 | 73% |
| Ac-RC[Aib][Cit][dTyr(4-OMe)″]RFC-NH2 (disulfide 2-8) [CTX-1299] | 78% | 65 nM | > 10000 nM | 3.66 | > 154 | – |
| Ac-RC[Aib]R[dF]RWC-NH2 (disulfide 2-8) [CTX-1292] | 90% | 0.16 nM | 3.3 nM | 2.46 | 21 | 76% |
| Ac-CGH[dF]RWC-NH2 (disulfide 1-7; SMILES CC(=O)N[C@H]1CSSC[C@@H](C(N)=O)NC(=O)[C@H](Cc2c[nH]c3ccccc23)NC(=O)[C@H](CCCNC(=N)N)NC(=O)[C@@H](Cc2ccccc2)NC(=O)[C@H](Cc2c[nH]cn2)NC(=O)CNC1=O) [CTX-1206] | 101% | – | 12 nM | – | 23 | 94% |
| Ac-RC[Aib][Cit][dF]R[dW]C-NH2 (disulfide 2-8) [CTX-1290] | 88% | 112 nM | 1040 nM | 10 | 9.23 | 20% |
| {CH2CO}-[dA]H[dF]RWC-NH2 (thioether N-6; SMILES C[C@H]1NC(=O)CSC[C@@H](C(N)=O)NC(=O)[C@H](Cc2c[nH]c3ccccc23)NC(=O)[C@H](CCCNC(=N)N)NC(=O)[C@@H](Cc2ccccc2)NC(=O)[C@H](Cc2c[nH]cn2)NC1=O) [CTX-1202] | 104% | 0.65 nM | 130 nM | 0.89 | – | 101% |
| Ac-RC[Aib]R[dTyr(4-OMe)″]RFC-NH2 (disulfide 2-8) [CTX-1298] | 93% | 3.3 nM | > 10000 nM | 0.12 | 0.93 | – |
| Ac-RCA[Cit][dF]R[dW]C-NH2 (disulfide 2-8) [CTX-1288] | 87% | 77 nM | 1250 nM | 3.75 | 16 | 36% |
| Ac-RCG[Cit][dF]RWC-NH2 (disulfide 2-8) [CTX-1294] | 102% | 3.5 nM | 40 nM | 111 | 11 | 33% |
| Ac-RC[Aib][Orn][dF]RFC-NH2 (disulfide 2-8; SMILES CC(=O)N[C@@H](CCCNC(=N)N)C(=O)N[C@H]1CSSC[C@@H](C(N)=O)NC(=O)[C@H](Cc2ccccc2)NC(=O)[C@H](CCCNC(=N)N)NC(=O)[C@@H](Cc2ccccc2)NC(=O)[C@H](CCCN)NC(=O)C(C)(C)NC1=O) [CTX-1602] | 97% | 73 nM | 251 nM | 3.65 | 3.44 | 80% |
| Ac-RC[Aib][Cit][dF]RWC-NH2 (disulfide 2-8) [CTX-1289] | 93% | 0.6 nM | 17 nM | 130 | 30 | 21% |

Second part, the binder after the results:

| % max activation (human MC4R receptor [1]) | cAMP EC50 (human MC4R receptor [1]) | cAMP EC50 (human MC3R) | MC4R selectivity vs MC1R (human MC4R receptor [2]) | MC4R selectivity vs MC3R (human MC4R receptor [2]) | % max activation (human MC3R) | Binder |
| --- | --- | --- | --- | --- | --- | --- |
| 92% | 133 nM | 82 nM | 2.99 | 0.62 | 7.69% | Ac-RC[Aib][4Pal][dF]RFC-NH2 (disulfide 2-8; SMILES CC(=O)N[C@@H](CCCNC(=N)N)C(=O)N[C@H]1CSSC[C@@H](C(N)=O)NC(=O)[C@H](Cc2ccccc2)NC(=O)[C@H](CCCNC(=N)N)NC(=O)[C@@H](Cc2ccccc2)NC(=O)[C@H](Cc2ccncc2)NC(=O)C(C)(C)NC1=O) [CTX-1606] |
| 96% | 1520 nM | 167 nM | 3.66 | 0.11 | 12% | Ac-RC[Aib][2Pal][dF]RFC-NH2 (disulfide 2-8; SMILES CC(=O)N[C@@H](CCCNC(=N)N)C(=O)N[C@H]1CSSC[C@@H](C(N)=O)NC(=O)[C@H](Cc2ccccc2)NC(=O)[C@H](CCCNC(=N)N)NC(=O)[C@@H](Cc2ccccc2)NC(=O)[C@H](Cc2ccccn2)NC(=O)C(C)(C)NC1=O) [CTX-1604] |
| – | > 10000 nM | > 10000 nM | – | – | – | {CH2CO}-[dA][Cit][dF]RFC-NH2 (thioether N-6) [CTX-1658] |
| – | > 10000 nM | > 10000 nM | – | – | – | {CH2CO}-G[Cit][dF]RFC-NH2 (thioether N-6) [CTX-1655] |
| – | > 10000 nM | > 10000 nM | – | – | – | {CH2CO}-[Aib][Cit][dF]RFC-NH2 (thioether N-6) [CTX-1652] |
| 85% | 33 nM | > 10000 nM | 0.14 | > 300 | – | Ac-RC[Aib][3Pal][dF]RFC-NH2 (disulfide 2-8; SMILES CC(=O)N[C@@H](CCCNC(=N)N)C(=O)N[C@H]1CSSC[C@@H](C(N)=O)NC(=O)[C@H](Cc2ccccc2)NC(=O)[C@H](CCCNC(=N)N)NC(=O)[C@@H](Cc2ccccc2)NC(=O)[C@H](Cc2cccnc2)NC(=O)C(C)(C)NC1=O) [CTX-1605] |
